From patent US10772928B2, “Modulation and detection of a neuronal alternative splicing regulatory network for treatment and diagnosis of neurological disorders” (The Governing Council of the University of Toronto, priority 2014, dated 2020) come the findings set out here.

T1: nSR100 (Mus musculus, UniProt Q8BKA3)
T1 construct: host or cells: mouse N2A cells
T1 sequence (Q8BKA3 1-608): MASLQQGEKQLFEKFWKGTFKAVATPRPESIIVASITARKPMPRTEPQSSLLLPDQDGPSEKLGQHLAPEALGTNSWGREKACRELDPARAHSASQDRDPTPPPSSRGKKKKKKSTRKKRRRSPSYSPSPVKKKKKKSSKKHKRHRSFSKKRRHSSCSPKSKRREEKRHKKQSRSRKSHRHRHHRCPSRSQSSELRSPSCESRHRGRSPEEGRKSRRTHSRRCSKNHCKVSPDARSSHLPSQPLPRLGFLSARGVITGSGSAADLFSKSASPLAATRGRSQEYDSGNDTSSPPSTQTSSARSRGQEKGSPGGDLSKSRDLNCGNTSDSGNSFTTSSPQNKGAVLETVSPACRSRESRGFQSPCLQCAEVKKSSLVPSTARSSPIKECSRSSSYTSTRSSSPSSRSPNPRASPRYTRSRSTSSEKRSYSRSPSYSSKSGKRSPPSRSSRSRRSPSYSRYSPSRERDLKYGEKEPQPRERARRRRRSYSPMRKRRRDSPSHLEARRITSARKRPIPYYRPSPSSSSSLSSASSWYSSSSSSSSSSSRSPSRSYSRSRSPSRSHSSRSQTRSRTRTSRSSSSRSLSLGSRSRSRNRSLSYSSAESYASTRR

B1: Puf60 (protein, UniProt Q3UEB3 1-564, looked up)
Poly(U)-binding-splicing …: MATATIALQVNGQQGGGSEPAAAAAAAAAAVVAAGDKWKPPQGTESIKMENGQSTGTKLGLPPLTPEQQEALQKAKKYAMEQSIKSVLVKQTIAHQQQQLTNLQMAAVTMGFGDPLSPLQSMAAQRQRALAIMCRVYVGSIYYELGEDTIRQAFAPFGPIKSIDMSWDSVTMKHKGFAFVEYEVPEAAQLALEQMNSVMLGGRNIKVGRPSNIGQAQPIIDQLAEEARAFNRIYVASVHQDLSDDDIKSVFEAFGKIKSCTLARDPTTGKHKGYGFIEYEKAQSSQDAVSSMNLFDLGGQYLRVGKAVTPPMPLLTPATPGGLPPAAAVAAAAATAKITAQEAVAGAAVLGTLATPGLVSPALTLAQPLGALPQAVMAAQAPGVITGVTPARPPIPVTIPSVGVVNPILASPPTLGLLEPKKEKEEEELFPESERPEMLSEQEHMSISGSSARHMVMQKLLRKQESTVMVLRNMVDPKDIDDDLEGEVTEECGKFGAVNRVIIYQEKQGEEEDAEIIVKIFVEFSMASETHKAIQALNGRWFGGRKVVAEVYDQERFDNSDLSA
B2: Ccnb1 (protein, UniProt P24860 1-430, looked up)
G2/mitotic-specific cyclin-B1: MALRVTRNTKINAENKAKVSMAGAKRVPVTVTAASKPGLRPRTALGDIGNKVSEELQARVPLKREAKTLGTGKGTVKALPKPVEKVPVCEPEVELAEPEPEPELEHVREEKLSPEPILVDNPSPSPMETSGCAPAEEYLCQAFSDVILAVSDVDADDGADPNLCSEYVKDIYAYLRQLEEEQSVRPKYLQGREVTGNMRAILIDWLIQVQMKFRLLQETMYMTVSIIDRFMQNSCVPKKMLQLVGVTAMFIASKYEEMYPPEIGDFAFVTNNTYTKHQIRQMEMKILRVLNFSLGRPLPLHFLRRASKVGEVDVEQHTLAKYLMELSMLDYDMVHFAPSQIAAGAFCLALKILDNGEWTPTLQHYLSYSEDSLLPVMQHLAKNVVMVNCGLTKHMTVKNKYAASKHAKISTLAQLNCTLVQNLSKAVTKA
B3: Luc7l2 (protein, UniProt Q7TNC4 1-392, looked up)
Putative RNA-binding protein …: MSAQAQMRAMLDQLMGTSRDGDTTRQRIKFSDDRVCKSHLLNCCPHDVLSGTRMDLGECLKVHDLALRADYEIASKEQDFFFELDAMDHLQSFIADCDRRTEVSKKRLAETQEEISAEVAAKAERVHELNEEIGKLLAKVEQLGAEGNVEESQKVMDEVEKARAKKREAEEVYRNSMPASSFQQQKLRVCEVCSAYLGLHDNDRRLADHFGGKLHLGFIEIREKLEELKRVVAEKQEKRNQERLKRREEREREEREKLRRSRSHSKNPKRSRSREHRRHRSRSMSRERKRRTRSKSREKRHRHRSRSSSRSRSRSHQRSRHSSRDRSRERSKRRSSKERFRDQDLASRDRDRSSRDRSPRDRDRKDKKRSYESANGRSEDRRSSEEREAGEI
B4: U2af1 (protein, UniProt Q9D883 2-239, looked up)
Splicing factor U2AF 35 kDa …: AEYLASIFGTEKDKVNCSFYFKIGACRHGDRCSRLHNKPTFSQTIALLNIYRNPQNSSQSADGLRCAVSDVEMQEHYDEFFEEVFTEMEEKYGEVEEMNVCDNLGDHLVGNVYVKFRREEDAEKAVIDLNNRWFNGQPIHAELSPVTDFREACCRQYEMGECTRGGFCNFMHLKPISRELRRELYGRRRKKHRSRSRSRERRSRSRDRGRGGGGGGGGGGGRERDRRRSRDRERSGRF
B5: Csnk1d (protein, UniProt Q9DC28 1-415, looked up)
Casein kinase I isoform delta: MELRVGNRYRLGRKIGSGSFGDIYLGTDIAAGEEVAIKLECVKTKHPQLHIESKIYKMMQGGVGIPTIRWCGAEGDYNVMVMELLGPSLEDLFNFCSRKFSLKTVLLLADQMISRIEYIHSKNFIHRDVKPDNFLMGLGKKGNLVYIIDFGLAKKYRDARTHQHIPYRENKNLTGTARYASINTHLGIEQSRRDDLESLGYVLMYFNLGSLPWQGLKAATKRQKYERISEKKMSTPIEVLCKGYPSEFATYLNFCRSLRFDDKPDYSYLRQLFRNLFHRQGFSYDYVFDWNMLKFGASRAADDAERERRDREERLRHSRNPATRGLPSTASGRLRGTQEVAPPTPLTPTSHTANTSPRPVSGMERERKVSMRLHRGAPVNVSSSDLTGRQDTSRMSTSQIPGRVASSGLQSVVHR
B6: Csnk2a1 (protein, UniProt Q60737 1-391, looked up)
Casein kinase II subunit alpha: MSGPVPSRARVYTDVNTHRPREYWDYESHVVEWGNQDDYQLVRKLGRGKYSEVFEAINITNNEKVVVKILKPVKKKKIKREIKILENLRGGPNIITLADIVKDPVSRTPALVFEHVNNTDFKQLYQTLTDYDIRFYMYEILKALDYCHSMGIMHRDVKPHNVMIDHEHRKLRLIDWGLAEFYHPGQEYNVRVASRYFKGPELLVDYQMYDYSLDMWSLGCMLASMIFRKEPFFHGHDNYDQLVRIAKVLGTEDLYDYIDKYNIELDPRFNDILGRHSRKRWERFVHSENQHLVSPEALDFLDKLLRYDHQSRLTAREAMEHPYFYTVVKDQARMSSTSMAGGSTPVSSANMMSGISSVPTPSPLGPLAGSPVIAAANSLGIPVPAAAGAQQ
B7: Ccnb2 (protein, UniProt P30276 1-398, looked up)
G2/mitotic-specific cyclin-B2: MALLRRPTVSSDLKNIDTEVIPKAKSHVTIRRAVLEEIGNKVRNRTTQVAKKPQNTKVPALPTKVTNVNKQPKPTASVKPVQMEALAPKDRPPAPEDVSMKEESLCQAFSDALLCKIEDIDNEDRENPQLCSDYVKDIYQYLRQLEVLQSINPHFLDGRDINGRMRAILVDWLVQVHSKFRLLQETLYMCIAIMDRFLQAQLVCRKKLQLVGITALLLASKYEEMFSPNIEDFVYITDNAYTSSQIREMETLILKELKFELGRPLPLHFLRRASKAGEVDVEQHTLAKYLMELTLVDYDMVHYHPSQVAAAASCLSQKVLGQGKWNLKQQYYTGYMESEVLEVMQHMAKNVVKVNDNRTKFIAVKNKYASSRLLKISTIPQLNSKIIKDLASPLLGSP
B8: Ywhaq (protein, UniProt P68254 1-245, looked up)
14-3-3 protein theta: MEKTELIQKAKLAEQAERYDDMATCMKAVTEQGAELSNEERNLLSVAYKNVVGGRRSAWRVISSIEQKTDTSDKKLQLIKDYREKVESELRSICTTVLELLDKYLIANATNPESKVFYLKMKGDYFRYLAEVACGDDRKQTIENSQGAYQEAFDISKKEMQPTHPIRLGLALNFSVFYYEILNNPELACTLAKTAFDEAIAELDTLNEDSYKDSTLIMQLLRDNLTLWTSDSAGEECDAAEGAEN

The first experiment concerns the target T1, nSR100. Put plainly: AP-MS nSR100 interaction partners from mouse N2A cells (Table 5). Type of experiment: binding. The settings on record: bait Srrm4.
Excerpt: By applying affinity purification coupled to mass-spectrometry (AP-MS), several interaction nSR100 partner proteins were detected that provide insight into mechanisms of post-translational regulation of nSR100 levels.
For B1, the “AvgP (average of the SAINT scores)” value turned out to be 1 and the “MaxP (maximal SAINT score)” value stood at 1.
In the case of B2, the “AvgP (average of the SAINT scores)” value is 1 and the “MaxP (maximal SAINT score)” value is given as 1.
Turning to B3, the “AvgP (average of the SAINT scores)” value is 1 and the “MaxP (maximal SAINT score)” value is reported as 1.
B4: the “AvgP (average of the SAINT scores)” value turned out to be 1 and the “MaxP (maximal SAINT score)” value was 1.
For B5, the “AvgP (average of the SAINT scores)” value worked out at 1 and the “MaxP (maximal SAINT score)” value amounted to 1.
B6: the “AvgP (average of the SAINT scores)” value stood at 1 and the “MaxP (maximal SAINT score)” value was 1.
In the case of B7, the “AvgP (average of the SAINT scores)” value is recorded as 1 and the “MaxP (maximal SAINT score)” value was found to be 1.
In the case of B8, the “AvgP (average of the SAINT scores)” value was 1 and the “MaxP (maximal SAINT score)” value came to 1.

Still in this experiment, the particulars now being: bait Srrm4, 0.1 added to prevent division by 0.
B1: the “FoldChange between the prey Avg spectra of the bait and control purifications” value (“FoldChange between the prey Avg spectra” for short) came out at 5.07.
For the molecule B2, the “FoldChange between the prey Avg spectra” value worked out at 300.
Still for that read-out and setting: the result for B3 reads 4.33.
The same measure, in the same setting: then B4, with 4.6; and B5, with 55.
The same measure, in the same setting: then B6, with 4.95; and B7, with 60.
As to B8, the “FoldChange between the prey Avg spectra” value is given as 180.

Staying with this experiment, now noted: bait Srrm4, 2 replicates.
Regarding B1, the “AvgSpec (average number of spectra per replicate)” value worked out at 73.5.
On the same count and under the same terms, then B2, with 30; and B3, with 39.
In the case of B4, the “AvgSpec (average number of spectra per replicate)” value turned out to be 23.
Same read-out and setting: then B5, with 5.5.
Same read-out and setting: then B6, with 49.5; and B7, with 6; and B8, with 18.

The experiment is the same for the next values; noted with them: bait Srrm4, biological replicate 1 (first number of the cell), AP-MS.
For B1, the “Spectra (number of spectra for the prey in the purification of the bait)” value is recorded as 55.
On the same count and under the same terms, then B2, with 27; and B3, with 35; and B4, with 22.
On the same count and under the same terms, then B5, with 7; and B6, with 44; and B7, with 4.
On the same count and under the same terms, the result for B8 reads 15.

The experiment is the same for the next values; noted with them: bait Srrm4, biological replicate 2 (second number of the cell), AP-MS.
As to B1, the “Spectra (number of spectra for the prey in the purification of the bait)” value turned out to be 92.
The same measure, in the same setting: then B2, with 33.
Same read-out and setting: then B3, with 43; and B4, with 24; and B5, with 4.
Turning to B6, the “Spectra (number of spectra for the prey in the purification of the bait)” value is 55.
For B7, the “Spectra (number of spectra for the prey in the purification of the bait)” value is on record as 8.
Same read-out and setting: then B8, with 21.

The same experiment, now with this note: bait Srrm4, sum of spectra over 2 replicates.
Consider B1, for which the SpecSum is recorded as 147.
On the same count and under the same terms, then B2, with 60; and B3, with 78.
Same read-out and setting: the result for B4 reads 46; that for B5, 11; that for B6, 99.
On the same count and under the same terms, then B7, with 12.
In turn, B8 displayed a SpecSum of 36.
